Test [1] has as its target rabbit muscle G-actin (rabbit) (UniProt P68135). Put plainly: ITC; 20°C; TbCof (0.15 mM, syringe) injected into ADP-G-actin (0.015 mM, cell); ADP-G-buffer: 10 mM Tris, 0.2 mM CaCl2, 0.2 mM ADP, 2.0 mM BME, pH 7.4 (low ionic strength); one-site model. Background: Isothermal titration calorimetry measures the heat released or taken up as one component is titrated into another.

For test [2] the target is unchanged. The test is described as follows: ITC; 20°C; TbCof (0.28 mM, syringe) injected into ATP-G-actin (0.028 mM, cell); ATP-G-buffer: 10 mM Tris, 0.2 mM CaCl2, 0.2 mM ATP, 2.0 mM BME, pH 7.4 (low ionic strength); one-site model.

The text below walks through data of paper PMC3541276.

Usually Kd stands for the concentration at which binding is half-saturated. High values mean a looser complex, low ones a tighter complex. By stoichiometry N is commonly meant a count of units in the complex or per binding partner. Consider “ADF/cofilin from Trypanosoma brucei (TbCof), His6 tag cleaved with TEV protease (natural protein)”, for which, in test [1], the Kd stood at 80 nM, the dH was -9480 cal/mol and the stoichiometry N is 1. Further, in test [2], the Kd was 360 nM, the dH is -3930 cal/mol and the stoichiometry N was 1.
